Here are results for 1 substance from US20240125793A1.

The target in assay [1] is 5c1-I-E^k (murine) (UniProt P04224). As to the kind of experiment: cell-based or functional assay.
Assay [2] deals with MCC-I-E^k (soluble I-Ek exchanged with the MCC peptide) (murine) (UniProt P04224). Briefly: cell-based or functional assay.
Assay [3] has as its target 5c1-I-E^k (murine) (UniProt P04224). As to the kind of experiment: SPR (Biacore T100), refolded TCR over peptide-exchanged biotinylated I-Ek on SA chip, equilibrium. In general terms: SPR reads the build-up and loss of mass on a sensor chip optically.
For assay [4], the target named is 5c3-I-E^k (murine) (UniProt P04224). The description is as above.
Assay [5] addresses MCC-I-E^k (soluble I-Ek exchanged with the MCC peptide) (murine) (UniProt P04224). The description is as above.

On to 5cc7 TCR, for which the signaling potency (EC50) in assay [1] stood at 1.5 µM; in assay [2], 0.0084 µM. In addition, the figures for the Kd in assay [3], in assay [4] and in assay [5] were 115 µM, 62 µM and 41 µM, respectively.

The term Kd denotes the constant that tells how readily two partners part at equilibrium. A low value points to tighter binding.
